Source: PMC8986478 (Immunity, 2022)
Changes are numbered by the printed parent chain.

B1: C1554 IgG (antibody, V domains shown)
VH: QVQLVQSGAEVKKPGASVKVSCKVSGYTLPEISIHWVREAPGKGLEWMGGFDPEDGETIYSQRFQGRVTMTEDTSTDTAYMELSSLRSEDTAVYYCAASSPFSGGWFHPWGQGTLVTVSS
VL: QSALTQPASVSGSPGQSITISCTETSSDVGNYNLVSWYQQHPGKAPKLVIYEGTKRPSGVSNRFSASKSGNTASLTISELQAEDEANYYCCSYARSGVFGGGTKLTVL
B2: C1717 IgG (antibody, V domains shown)
VH: QVQLVQSGAEVKKPGSSVKVSCKTSGGTFNSFAINWVRQAPGQGPEWMGRVIPVLEIANYAQKFQGRITITADKSTSTAYMELSSLTSEDTAIYYCARHHIAVAQPYFDYWGQGTLVTVSS
VL: not shown
B3: C1621 IgG (antibody, V domains shown)
VH: EVQLVESGGGLVKPGGSLRLSCAASGFSFNNSNMNWVRQAPGKGLEWVSSISSSSNYIYYVDSVKGRFTISRDNAKNSLYLQMSSLRVEDTAVYYCASAQSSARWGGYYQYAMDVWGQGTTVTVSS
VL: EIVMTQSPATLSVSPGERATLSCRASQSVSSSLAWYQQKPGQAPRLLIYDASTRATGIPARFSGRGSGTEFTLTISSLQSEDFAVYYCQQYYNWPPWTFGQGTKVEI
B4: C1791 IgG (antibody, V domains shown)
VH: EVQLLESGGGLVQPGGSRRLSCAASGFTFSIAAMSWVRQAPGKGLEWVSVISTSGGTSYYADSVRGRFTISRDNSQNTLYLQMNSLSAEDTAIYYCAKDLGSYFPDYWGQGTLVTVSS
VL: DIQMTQSPSSLSASVGDRVTITCRASQGIRNDIGWYQQKPGKAPKRLIHAASSLQSGVPSRFSGSGSGTEFTLTISSLQPEDFATYYCLQYNSYPRVTFGPGTKVDIK
B5: C1520 IgG (antibody, V domains shown)
VH: EVQLVESGGGLVQPGGSLRLACVASGFTFSIYEMNWVRQAPGKGLEWVSYITTSGHARYNADSVKGRFTISRDNSKNSFYLQMNSLRAEDTAIYYCARPQYHYYDTSTYHSYGFDIWGQGTMVTVSS
VL: QLVLTQSPSASASLGASVNLTCTLSSGHNSYAIAWHQQQPEKGPRYLMSLNSDGSHTKGDGIPDRFSGSSSGAERFLTISSLQSEDEADYYCQTWDTGIRVFGGGTRLTVL
B6: C1704 IgG (antibody, V domains shown)
VH: QVQLVQSGAEVKKPGASVKVSCKVSGYTLTELSIHWVRQAPGKGLEWMGSFDPEDGETICAQKFQGRVTMTEDTSTDTAYMELSSLRSEDTAVYYCATEWRGCSDTSCQGTNWFDPWGQGTLVTVSS
VL: B5 VL with L2P, N19K, N29S, S30T, S49K, T57N, F76Y, D96G, I99V, R107K
B7: C1557 IgG (antibody, V domains shown)
VH: QVQLVQSGAEVRKPGASVKVSCKVSGYTLTELSMHWVRQSPGKGLEWMGSFDPDDGETFYAQKFQGRITMSEDTSTDTAYMELSSLRSEDTAVYFCATDSNMIVVRGNYYYSGLDVWGQGTTVTVSS
VL: EIVMTQSPATLSVSPGERATLSCRASQSVAGNLAWYQQKPGLAPRLLIQGPSTRATGIPARFSGSGSGTEFTLTISSLQSEDFAVYYCHQYNNWPWTFGQGTKVEIK

Biological target: SARS-CoV-2 Wuhan-Hu-1 NTD (SARS-CoV-2 Wuhan-Hu-1, UniProt P0DTC2)
Assay: BLI

Row | Binder | binding result
1 | B1 | binds
2 | B2 | binds
3 | B3 | binds
4 | B4 | binds
5 | B5 | binds
6 | B6 | binds
7 | B7 | binds
